Results from patent US20200184403A1 (DOW AGROSCIENCES, published 2020).

Molecular target: the molecule itself
Assay: SDS-PAGE of undigested full-length DIG-177 (self-association)
Method: SDS-PAGE was run following the protocol NuPAGE Bis-Tris gels from Invitrogen Life technologies (Protocol Pub. No. MAN0007894 Rev. A.0, Ref.2). Briefly, samples were mixed with denaturing sample buffer (Invitrogen) plus 5 mM DTT (for reducing PAGE) or minus DTT (for non reducing PAGE) and heated at 95° C. for 5 minutes. The samples were loaded onto Invitrogen Bis/Tris gel. The gel was run with MOPS or MES running buffer under 200 V for ˜43 minutes. The gel was stained with Coomassie blue staining solution (Bio-Rad) for 30 minutes and de-stained with de-staining solution (7% Acetic acid and 5% Methanol in water) until the background cleared.

B1: DIG-177 (full length wild type Cry6Aa) (other)
chain: MIIDSKTTLPRHSLIHTIKLNSNKKYGPGDMTNGNQFIISKQEWATIGAYIQTGLGLPVNEQQLRTHVNLSQDISIPSDFSQLYDVYCSDKTSAEWWNKNLYPLIIKSANDIASYGFKVAGDPSIKKDGYFKKLQDELDNIVDNNSDDDAIAKAIKDFKARCGILIKEAKQYEEAAKNIVTSLDQFLHGDQKKLEGVINIQKRLKEVQTALNQAHGESSPAHKELLEKVKNLKTTLERTIKAEQDLEKKVEYSFLLGPLLGFVVYEILENTAVQHIKNQIDEIKKQLDSAQHDLDRDVKIIGMLNSINTDIDNLYSQGQEAIKVFQKLQGIWATIGAQIENLRTTSLQEVQDSDDADEIQIELEDASDAWLVVAQEARDFTLNAYSTNSRQNLPINVISDSCNCSTTNMTSNQYSNPTTNMTSNQYMISHEYTSLPNNFMLSRNSNLEYKCPENNFMIYWYNNSDWYNNSDWYNN
notes: Recombinant, produced in Pseudomonas fluorescens (standard) or in maize cells (Western blots)
B1: binds.
